Data published in article doi:10.1101/2020.09.30.318972 (bioRxiv, 2020).

B1: LY-CoV555 (antibody, V domains shown)
VH: QVQLVQSGAEVKKPGSSVKVSCKASGGTFSNYAISWVRQAPGQGLEWMGRIIPILGIANYAQKFQGRVTITADKSTSTAYMELSSLRSEDTAVYYCARGYYEARHYYYYYAMDVWGQGTAVTVSS
VL: not shown
B2: LY-CoV555 Fab (Fab, V domains shown)
VH: QVQLVQSGAEVKKPGSSVKVSCKASGGTFSNYAISWVRQAPGQGLEWMGRIIPILGIANYAQKFQGRVTITADKSTSTAYMELSSLRSEDTAVYYCARGYYEARHYYYYYAMDVWGQGTAVTVSS
VL: not shown

Columns and labels:
[1] = target: T1, SARS-CoV-2 spike protein receptor-binding domain (SARS-CoV-2, UniProt P0DTC2); experiment: SPR
[2] = target: T1, SARS-CoV-2 spike protein …; experiment: crystal structure

Binder | binding result [1] | binding result [2]
B1 | binds | 
B2 |  | binds
